Results as given in patent US20100286042A1.

Target: FGFR2b
Assay: cell-based or functional assay

**Q.** With “basic fibroblast growth factor (FGF2) (from UniProt P09038 143-288) (ligand)” as the substance, how does the cell proliferation promoting activity on BaF3 cells forced to express the receptor (in the presence of heparin), relative to FGF1 (fold of the activity of FGF1) read?
**A.** Its cell proliferation promoting activity on BaF3 cells forced to express the receptor (in the presence of heparin), relative to FGF1 (fold of the activity of FGF1) is 0.001.
